Measured values taken from publication PMC11615320 (Communications Biology, 2024).
Changes are numbered by the printed parent chain. Numbers in names are those of the source.

B1: cytosolic domain of Synaptotagmin-1 (Syt-1), residues 79 to 421, wild type (domain or fragment, rat, UniProt P21707 79-421, looked up)
chain: CKKSLFKKKNKKKGKEKGGKNAINMKDVKDLGKTMKDQALKDDDAETGLTDGEEKEEPKEEEKLGKLQYSLDYDFQNNQLLVGIIQAAELPALDMGGTSDPYVKVFLLPDKKKKFETKVHRKTLNPVFNEQFTFKVPYSELGGKTLVMAVYDFDRFSKHDIIGEFKVPMNTVDFGHVTEEWRDLQSAEKEEQEKLGDIAFSLRYVPTAGKLTVVILEAKNLKKMDVGGLSDPYVKIHLMQNGKRLKKKKTTIKKNTLNPYYNESFSFEVPFEQIQKVQVVVTVLDYDKIGKNDAIGKVFVGYNSTGAELRHWSDMLANPRRPIAQWHTLQVEEEVDAMLAVKK
modifications: AlexaFluor 647 maleimide or AlexaFluor 488 maleimide on Cys79
B2: cytosolic domain (residues 79 to 421) of the Syt-1 F349A mutant (domain or fragment, rat, UniProt P21707 79-421, looked up)
chain: B1 chain with F271A
modifications: AlexaFluor 647 maleimide or AlexaFluor 488 maleimide on Cys79

How the values were obtained:
[1] = biological target: the molecule itself; experiment: single-molecule TIRF microscopy with step-photobleaching and intensity counting
[2] = biological target: the molecule itself; experiment: single-molecule TIRF microscopy, kinetics
[3] = biological target: the molecule itself; experiment: single-molecule TIRF microscopy, real-time dissociation

Protein	stoichiometry N [1] [copies]	KD of the large clusters [2] [nM]	KD of the small clusters [2] [nM]	koff [3] [s⁻¹]	Kd [2] [nM]
B1	5 ± 2	6 ± 2	40 ± 8	0.0024 ± 0.0004	–
B2	–	–	–	0.0017 ± 0.0003	45 ± 15
